We go through one protein from publication PMC6284238.

Substrate in the data set: NC(=O)c1ccc[n+]([C@@H]2O[C@H](COP(=O)([O-])OP(=O)(O)OC[C@H]3O[C@@H](n4cnc5c(N)ncnc54)[C@H](O)[C@@H]3O)[C@@H](O)[C@H]2O)c1
Briefly: Michaelis-Menten kinetics of NAD+ cleavage by purified SARM1-TIR, HPLC. The data set is classed as biochemical, Homo sapiens. Conditions: E642 is a putative key catalytic residue within the active site.

B1: SARM1-TIR (Homo sapiens) (protein)
chain: DTPDVFISYRRNSGSQLASLLKVHLQLHGFSVFIDVEKLEAGKFEDKLIQSVMGARNFVLVLSPGALDKCMQDHDCKDWVHKEIVTALSCGKNIVPIIDGFEWPEPQVLPEDMQAVLTFNGIKWSHEYQEATIEKIIRFLQGRS
Take B1: the Km is 24 µM.

Usually Km stands for the substrate concentration at which the rate is half of its maximum.
